According to the supplement of paper PMC10567573:

B1: ZNF649 (parent)
chain: LVAHQRYHTGKTPFVCPECGQPCS
B2: AUP1 (parent)
chain: FCASTRLPPTPLLLFPEEEATNGR

Variants of: B1
Test: protein stability index of a GFP-peptide fusion (GPS, HEK-293T) (PSI 1-6); higher = more stable
Conditions: c terminus: a fixed tail appended
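Note: lentivirally expressed fusions sorted by FACS into six bins by GFP to DsRed ratio, PSI derived from sequencing read proportions per bin multiplied by bin number.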

Protein stability index, by site and new letter:
L1: E 4.06, R 3.63, P 4.28, C 4.67, W 2.46, G 3.67, V 3.35, Q 3.87, K 3.65, S 4.24, Y 1.22, N 4.24, I 2.95, H 3.48, D 3.6, M 3.25, A 3.76, T 3.93, F 2.57
V2: Y 2.81, D 3.87, Q 3.62, K 2.91, P 3.5, A 3.28, L 3.09, G 3.81, H 4.09, I 3.1, T 4.06, M 3.34, F 2.78, E 4.4, R 3.36, C 4.4, W 2.57, N 3.39, S 3.49
H4: Y 2.64, D 3.98, K 2.49, N 3.33, T 3.17, R 2.77, L 1.81, E 3.31, M 2.76, I 2.26, G 3.42, P 3.4, W 2.72, C 4.02, V 2.97, A 3.02, Q 3.61, F 2.76, S 2.87
A3: Y 2.38, Q 3.68, C 4.11, M 2.71, T 3.47, S 3.58, D 4.3, E 4.14, G 3.68, I 3.32, N 2.71, V 2.46, K 3.41, P 3.24, R 3.14, F 2.23, H 3.59, W 2.57, L 2.69
Q5: F 1.95, I 3.78, M 2.24, D 3.74, L 2.05, S 3.14, A 3.22, K 3.03, C 2.86, N 3.15, P 3.32, R 3.06, G 2.98, H 3.11, E 4.17

Variants of: B2
Test: as above
Conditions: c terminus: a fixed tail appended

Protein stability index of substitutions, site by site:
L12: Y 1.97, F 3.16, H 2.87, M 3.25, R 3.12, K 3.6, W 2.77, S 3.47, C 2.95, N 3.35, E 4.1, V 3.31, G 2.87, Q 3.7, D 3.72, I 2.58
E19: G 2.29, N 2.62, L 2.19, T 2.68, A 2.74, W 1.87, Q 2.94, D 2.68, I 2.02, R 2.05, C 2.04, S 2.31, P 2.38, F 1.73, M 2.08, K 2.32, H 2.23, Y 2.69, V 2.33
P16: R 2.19, H 2.61, S 2.4, A 2.68, Y 2.03, F 2.24, G 2.69, C 2.08, E 3.48, M 2.15, D 3.05, W 2.48, K 2.26, L 1.57, V 1.8, Q 2.6, N 2.9, T 1.74, I 1.62
L13: R 3.45, E 3.86, V 3.25, A 3.43, Q 3.32, W 1.59, Y 2.62, F 2.18, M 3.15, K 2.74, G 3.42, T 3.56, I 2.77, N 3.12, D 3.94, H 3.4, S 3.54, C 3.01
L14: S 3.44, H 3.49, A 3.58, D 4.01, Y 2.59, I 3, G 2.66, F 2.14, C 2.4, N 3.61, P 3.48, W 1.38, T 3.41, Q 3.88, E 3.74, R 3.56, V 3.24, K 2.8, M 3.29
P11: W 2.14, S 3.05, V 2.8, Y 1.91, T 2.74
E17: A 1.96, W 1.7, F 1.83, I 1.93, L 1.5, G 2.31, T 1.62, K 2.25, C 1.52, N 2.55, M 2.51, R 1.96, V 2.09, Q 2.28, S 1.8, D 2.7, Y 2.47
G23: W 1.69, C 2.65, M 2.54, A 2.86, Q 3.09, F 2, T 2.76, I 2.19, V 2.91, R 2.59, E 3.33, H 2.82, D 3.33, N 2.97, K 2.62, S 2.94, P 2.75, L 2.67, Y 2.32
A20: G 2.79, V 2.7, W 2.15, T 2.97, S 3.21, Y 2.48, L 2.72, P 2.75, H 2.81, M 2.88, E 3.51, N 2.43, I 2.3, C 2.38, Q 2.96, D 3.12, K 2.93, R 2.77, F 2.21
E18: R 2.23, K 2.32, S 2.12, Q 2.72, M 1.94, N 2.37, D 2.52, L 2.54, V 2.21, C 2.18, I 2.4, G 2.54, A 2.19, P 2.15, T 2.2, H 2.15, F 1.82, Y 2.07, W 1.73
T21: N 3.15, E 3.68, D 3.35, G 2.68, Q 2.46, I 2.79, F 2.28, S 2.52, H 2.69, M 2.46, V 2.7, L 2.37, Y 2.65, W 2.15, R 2.8, A 2.6, K 3.09, C 3.05
R24: W 1.34, T 3.24, P 3, I 2.46, Y 1.88, S 3.01, V 2.85, H 2.76, F 2.39, D 3.3, A 3.27, L 2.09, E 3.4, M 2.38, C 2.72, N 3.01, Q 2.98, K 3.12, G 3.69
F15: L 3.44, V 3.1, S 3.45, K 3.11, R 3.37, M 3.12, N 3.44, A 2.93, C 2.61, T 3.74, W 2.68, I 3.23, G 3.24, Q 3.35, E 3.46, Y 2.61, H 3.34, D 3.62
N22: F 2.18, R 2.73, T 3.27, W 2.27, Y 2.82, D 3.1, Q 3.18, L 2.19, V 2.16, K 2.75, H 2.95, G 2.16, M 2.56, I 2.11, C 2.32, E 3.39, A 2.87, S 2.5
